We go through 2 substances from article PMC6962426.

The target in this assay is histidine-tagged FcγRIIIa-158V receptor. The assay can be described thus: Fcγ receptor binding assay. Conditions: read at the highest antibody concentration, x about 0.0014 (axis unit printed as µg/mL); parent: est. 260; read off a plot.

For IgG1-B (parent) N325Q, the response turned out to be 17 RU.

On to IgG1-B (parent) N325D, for which the response came to 55 RU.
